In patent publication US20140087995A1 (published 2014):
Numbered stars: 1 amine (or outer) side, 2 acyl side, 3 side chain; on linkers, the order of the positions; unused ones are H or OH. Bridge positions count the residues as written; N and C are the ends. Side chains are listed from the residue outwards. Ends that are not written are not given here. * marks the point of attachment. C20 diacid = O=C(O)CCCCCCCCCCCCCCCCCCC(=O)*; γGlu = O=C(O)[C@H](CCC(=O)[*:2])N[*:1]

T1: rat calcitonin receptor (rat, UniProt P32214 25-516)
T1 construct: whole, on cells; In cell membranes prepared from transiently transfected BHK tk'ts 13 cells (Assay VIII); also called rCTR; rat calcitonin (a) receptor
T1 sequence (looked up): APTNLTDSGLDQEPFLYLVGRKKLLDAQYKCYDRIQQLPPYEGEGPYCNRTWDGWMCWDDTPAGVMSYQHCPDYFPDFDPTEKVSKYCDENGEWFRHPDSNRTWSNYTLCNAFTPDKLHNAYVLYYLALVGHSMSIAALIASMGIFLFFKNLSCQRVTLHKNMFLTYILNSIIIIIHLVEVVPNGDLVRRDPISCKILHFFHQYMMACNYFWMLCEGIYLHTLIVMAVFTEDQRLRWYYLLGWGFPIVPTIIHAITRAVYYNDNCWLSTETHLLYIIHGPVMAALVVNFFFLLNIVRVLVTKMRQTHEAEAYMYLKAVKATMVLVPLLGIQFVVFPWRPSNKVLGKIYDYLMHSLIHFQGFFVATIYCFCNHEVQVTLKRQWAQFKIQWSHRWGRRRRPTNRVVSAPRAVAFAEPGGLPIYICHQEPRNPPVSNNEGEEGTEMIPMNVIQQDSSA

T2: human calcitonin receptor (human, UniProt P30988 25-474)
T2 construct: whole, on cells; Cell membranes from the stably transfected cell line (Assay VII); also called hCTR; hCT
T2 sequence (looked up): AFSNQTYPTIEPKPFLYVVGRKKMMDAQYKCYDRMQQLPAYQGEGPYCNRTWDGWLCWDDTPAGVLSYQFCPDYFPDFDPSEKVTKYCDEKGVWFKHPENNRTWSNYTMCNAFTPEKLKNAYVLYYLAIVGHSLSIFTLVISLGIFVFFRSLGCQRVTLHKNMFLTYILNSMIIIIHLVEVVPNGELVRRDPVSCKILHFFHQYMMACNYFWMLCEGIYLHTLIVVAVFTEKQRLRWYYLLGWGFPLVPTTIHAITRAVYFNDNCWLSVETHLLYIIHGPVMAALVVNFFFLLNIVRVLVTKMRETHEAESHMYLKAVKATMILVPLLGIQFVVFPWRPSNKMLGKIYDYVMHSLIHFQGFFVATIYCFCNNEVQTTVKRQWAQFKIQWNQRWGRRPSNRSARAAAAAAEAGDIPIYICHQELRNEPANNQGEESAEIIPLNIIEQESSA

T3: rat amylin receptor (rat calcitonin receptor + rat RAMP 3) (rat, UniProt P32214 25-516; Q9JJ73 23-147)
T3 construct: whole, on cells; Receptor complex in cell membranes prepared from transiently transfected BHK tk'ts 13 cells (Assay VI); also called rAmylin-R; rat amylin 3(a) receptor
T3 sequence (looked up) 1: T1 sequence (looked up)
T3 sequence (looked up) 2: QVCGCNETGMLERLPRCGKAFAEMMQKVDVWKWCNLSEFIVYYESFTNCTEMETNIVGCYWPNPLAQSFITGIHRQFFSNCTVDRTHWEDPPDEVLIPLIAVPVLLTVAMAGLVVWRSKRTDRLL

B1: N^ε1-[(4S)-4-carboxy-4-[[(4S)-4-carboxy-4-(19-carboxynonadecanoylamino)butanoyl]amino]butanoyl]-[Glu14,Arg17,Pro23,Pro34,Glu35]-h-amylin (peptide)
peptide: K([γGlu-γGlu-C20 diacid])CNTATCATQRLAEFLRHSSNNPGAILSSTNVGPETY-NH2
modifications: disulfide 2-7
B2: N^ε1-[(4S)-4-carboxy-4-[[(4S)-4-carboxy-4-(19-carboxynonadecanoylamino)butanoyl]amino]butanoyl]-[Glu14,Arg17,Pro21,Pro27,Pro34,Glu35,Pro37]-h-amylin (peptide)
peptide: K([γGlu-γGlu-C20 diacid])CNTATCATQRLAEFLRHSSPNFGAIPSSTNVGPETP-NH2
modifications: disulfide 2-7; N-terminus assumed
SMILES: CC[C@H](C)[C@H](NC(=O)[C@H](C)NC(=O)CNC(=O)[C@H](Cc1ccccc1)NC(=O)[C@H](CC(N)=O)NC(=O)[C@@H]1CCCN1C(=O)[C@H](CO)NC(=O)[C@H](CO)NC(=O)[C@H](Cc1c[nH]cn1)NC(=O)[C@H](CCCNC(=N)N)NC(=O)[C@H](CC(C)C)NC(=O)[C@H](Cc1ccccc1)NC(=O)[C@H](CCC(=O)O)NC(=O)[C@H](C)NC(=O)[C@H](CC(C)C)NC(=O)[C@H](CCCNC(=N)N)NC(=O)[C@H](CCC(N)=O)NC(=O)[C@@H](NC(=O)[C@H](C)NC(=O)[C@@H]1CSSC[C@H](NC(=O)[C@@H](N)CCCCNC(=O)CC[C@H](NC(=O)CC[C@H](NC(=O)CCCCCCCCCCCCCCCCCCC(=O)O)C(=O)O)C(=O)O)C(=O)N[C@@H](CC(N)=O)C(=O)N[C@@H]([C@@H](C)O)C(=O)N[C@@H](C)C(=O)N[C@@H]([C@@H](C)O)C(=O)N1)[C@@H](C)O)C(=O)N1CCC[C@H]1C(=O)N[C@@H](CO)C(=O)N[C@@H](CO)C(=O)N[C@H](C(=O)N[C@@H](CC(N)=O)C(=O)N[C@H](C(=O)NCC(=O)N1CCC[C@H]1C(=O)N[C@@H](CCC(=O)O)C(=O)N[C@H](C(=O)N1CCC[C@H]1C(N)=O)[C@@H](C)O)C(C)C)[C@@H](C)O
B3: N^ε1-[(4S)-4-carboxy-4-[[(4S)-4-carboxy-4-(19-carboxynonadecanoylamino)butanoyl]amino]butanoyl]-[Glu14,Arg17,Pro21,Pro27,Pro34,Phe37]-h-amylin (peptide)
peptide: K([γGlu-γGlu-C20 diacid])CNTATCATQRLAEFLRHSSPNFGAIPSSTNVGPNTF-NH2
modifications: disulfide 2-7; N-terminus assumed
SMILES: CC[C@H](C)[C@H](NC(=O)[C@H](C)NC(=O)CNC(=O)[C@H](Cc1ccccc1)NC(=O)[C@H](CC(N)=O)NC(=O)[C@@H]1CCCN1C(=O)[C@H](CO)NC(=O)[C@H](CO)NC(=O)[C@H](Cc1c[nH]cn1)NC(=O)[C@H](CCCNC(=N)N)NC(=O)[C@H](CC(C)C)NC(=O)[C@H](Cc1ccccc1)NC(=O)[C@H](CCC(=O)O)NC(=O)[C@H](C)NC(=O)[C@H](CC(C)C)NC(=O)[C@H](CCCNC(=N)N)NC(=O)[C@H](CCC(N)=O)NC(=O)[C@@H](NC(=O)[C@H](C)NC(=O)[C@@H]1CSSC[C@H](NC(=O)[C@@H](N)CCCCNC(=O)CC[C@H](NC(=O)CC[C@H](NC(=O)CCCCCCCCCCCCCCCCCCC(=O)O)C(=O)O)C(=O)O)C(=O)N[C@@H](CC(N)=O)C(=O)N[C@@H]([C@@H](C)O)C(=O)N[C@@H](C)C(=O)N[C@@H]([C@@H](C)O)C(=O)N1)[C@@H](C)O)C(=O)N1CCC[C@H]1C(=O)N[C@@H](CO)C(=O)N[C@@H](CO)C(=O)N[C@H](C(=O)N[C@@H](CC(N)=O)C(=O)N[C@H](C(=O)NCC(=O)N1CCC[C@H]1C(=O)N[C@@H](CC(N)=O)C(=O)N[C@H](C(=O)N[C@@H](Cc1ccccc1)C(N)=O)[C@@H](C)O)C(C)C)[C@@H](C)O
B4: N^ε1-[(4S)-4-carboxy-4-[[(4S)-4-carboxy-4-(19-carboxynonadecanoylamino)butanoyl]amino]butanoyl]-[Glu14,Arg17,Pro21,Pro27,Pro34,His35]-h-amylin (peptide)
peptide: K([γGlu-γGlu-C20 diacid])CNTATCATQRLAEFLRHSSPNFGAIPSSTNVGPHTY-NH2
modifications: disulfide 2-7; N-terminus assumed
SMILES: CC[C@H](C)[C@H](NC(=O)[C@H](C)NC(=O)CNC(=O)[C@H](Cc1ccccc1)NC(=O)[C@H](CC(N)=O)NC(=O)[C@@H]1CCCN1C(=O)[C@H](CO)NC(=O)[C@H](CO)NC(=O)[C@H](Cc1c[nH]cn1)NC(=O)[C@H](CCCNC(=N)N)NC(=O)[C@H](CC(C)C)NC(=O)[C@H](Cc1ccccc1)NC(=O)[C@H](CCC(=O)O)NC(=O)[C@H](C)NC(=O)[C@H](CC(C)C)NC(=O)[C@H](CCCNC(=N)N)NC(=O)[C@H](CCC(N)=O)NC(=O)[C@@H](NC(=O)[C@H](C)NC(=O)[C@@H]1CSSC[C@H](NC(=O)[C@@H](N)CCCCNC(=O)CC[C@H](NC(=O)CC[C@H](NC(=O)CCCCCCCCCCCCCCCCCCC(=O)O)C(=O)O)C(=O)O)C(=O)N[C@@H](CC(N)=O)C(=O)N[C@@H]([C@@H](C)O)C(=O)N[C@@H](C)C(=O)N[C@@H]([C@@H](C)O)C(=O)N1)[C@@H](C)O)C(=O)N1CCC[C@H]1C(=O)N[C@@H](CO)C(=O)N[C@@H](CO)C(=O)N[C@H](C(=O)N[C@@H](CC(N)=O)C(=O)N[C@H](C(=O)NCC(=O)N1CCC[C@H]1C(=O)N[C@@H](Cc1c[nH]cn1)C(=O)N[C@H](C(=O)N[C@@H](Cc1ccc(O)cc1)C(N)=O)[C@@H](C)O)C(C)C)[C@@H](C)O

target: T1, rat calcitonin receptor; assay: ratio of binding IC50s: rat calcitonin receptor (Assay VIII) over rat amylin receptor (Assay VI)

Ratio rCT/rAmylin binding	Binder
132	B1
10.6	B2
114	B3
73	B4

target: T2, human calcitonin receptor; assay: ratio of binding IC50s: human calcitonin receptor (Assay VII) over human amylin receptor (Assay V)
Procedure: The resulting pellet was resuspended, homogenized and centrifuged (20.000 rpm, 15 min) in a buffer containing 20 mM Na-HEPES and 0.1 mM EDTA (pH 7.4, buffer 2). The resulting pellet was resuspended in buffer 2 and protein concentration was measured (BCA protein Assay, Pierce). The homogenate was kept cold during the whole procedure. The membranes were kept at −80° C. until use. The assay was performed in a 384 well Optiplate (PerkinElmer) in a total volume of 40 ul. Membranes were mixed with SPA beads. Final concentration of membranes 35 ng/μL final and SPA beads was 0.05 mg/well. Test-compounds were dissolved in DMSO and further diluted in assay buffer (50 mM Hepes, pH 7.4, 1 mM CaCl2, 5 mM MgCl₂, 0.1% OA and 0.02% Tween20). […] The final mixture was incubated with shaking at 400 rpm for 120 min at 25° C. prior to centrifugation (1500 rpm, 10 min). Samples were analyzed on TopCounter™ (Packard). The IC₅₀ was calculated using (one site binding competition analysis) GraphPad Prism5 as a measure of receptor affinity.
Membranes were prepared in the following way; the cells were rinsed with PBS and incubated with Versene for approximately 5 min before harvesting. The cells were flushed with PBS and the cell-suspension was centrifuged for 5 min at 1000 rpm. Cells were homogenized (Ultrathurrax) in a buffer containing 20 mM Na-HEPES and 10 mM EDTA (pH 7.4) and centrifuged at 20.000 rpm for 15 min. The resulting pellet was resuspended, homogenized and centrifuged (20.000 rpm, 15 min) in a buffer containing 20 mM Na-HEPES and 0.1 mM EDTA (pH 7.4, buffer 2). The resulting pellet was resuspended in buffer 2 and protein concentration was measured (BCA protein Assay, Pierce). The homogenate was kept cold during the whole procedure. The membranes were kept at −80° C. until use. Assay was performed in a 384 well Optiplate (PerkinElmer) in a total volume of 40 ul. Membranes were mixed with SPA beads.

Ratio hCT/hAmylin binding	Binder
7.8	B1
0.4	B2
18	B3
27.3	B4

target: T1, rat calcitonin receptor; assay: SPA competition binding, displacement of 125I-Calcitonin from membranes of BHK tk'ts 13 cells with rat calcitonin receptor (Assay VIII)

IC50	Binder
86.8 nM	B1
1.61 nM	B2
23.4 nM	B3
21 nM	B4

target: T3, rat amylin receptor (rat calcitonin …); assay: SPA competition binding, displacement of 125I-rat amylin from membranes of BHK tk'ts 13 cells with rat calcitonin receptor + rat RAMP 3 (Assay VI)

IC50	Binder
0.659 nM	B1
0.152 nM	B2
0.205 nM	B3
0.288 nM	B4
